Test results from patent US20260022175A1 (Chugai, published 2026).
Residue numbers refer to the chain shown, from its start.

B1: 04H1637-G1m/04L1610-lam1 (antibody, human IgG1, lambda)
heavy: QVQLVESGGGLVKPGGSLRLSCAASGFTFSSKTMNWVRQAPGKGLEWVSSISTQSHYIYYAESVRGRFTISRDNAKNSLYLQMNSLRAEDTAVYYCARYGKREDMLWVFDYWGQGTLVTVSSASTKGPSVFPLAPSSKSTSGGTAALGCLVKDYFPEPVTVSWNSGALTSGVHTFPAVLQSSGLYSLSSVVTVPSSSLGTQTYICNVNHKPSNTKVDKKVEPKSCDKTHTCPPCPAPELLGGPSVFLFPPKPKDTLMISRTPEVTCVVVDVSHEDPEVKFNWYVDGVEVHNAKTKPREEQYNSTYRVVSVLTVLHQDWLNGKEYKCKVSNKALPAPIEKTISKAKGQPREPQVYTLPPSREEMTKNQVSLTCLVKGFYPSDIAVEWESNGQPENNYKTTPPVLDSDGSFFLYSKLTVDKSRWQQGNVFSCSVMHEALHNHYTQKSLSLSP
light: QSALTQPPSASGSPGQSVTISCEGPSTGVGDYNWVHWYQQHPGKAPKLMIYFTSKKPSGVPDRFSGSKSGNTASLTVSGLQAEDEADYYCQTYAAPLGPMFGGGTKLTVLGQPKAAPSVTLFPPSSEELQANKATLVCLISDFYPGAVTVAWKADSSPVKAGVETTTPSKQSNNKYAASSYLSLTPEQWKSHRSYSCQVTHEGSTVEKTVAPTECS
B2: 04H1637-G1m/04L1581-lam1 (antibody, human IgG1, lambda, V domains shown)
VH: QVQLVESGGGLVKPGGSLRLSCAASGFTFSSKTMNWVRQAPGKGLEWVSSISTQSHYIYYAESVRGRFTISRDNAKNSLYLQMNSLRAEDTAVYYCARYGKREDMLWVFDYWGQGTLVTVSS
VL: QSALTQPPSASGSPGQSVTISCQGPSTGVGDYTWVHWYQQHPGKAPKLMIYFTIKKPKGVPDRFSGSKSGNTASLTVSGLQAEDEADYYCQTYAAPLGPMFGGGTKLTVLG
B3: 04H1643-G1m/04L1610-lam1 (antibody, human IgG1, lambda)
heavy: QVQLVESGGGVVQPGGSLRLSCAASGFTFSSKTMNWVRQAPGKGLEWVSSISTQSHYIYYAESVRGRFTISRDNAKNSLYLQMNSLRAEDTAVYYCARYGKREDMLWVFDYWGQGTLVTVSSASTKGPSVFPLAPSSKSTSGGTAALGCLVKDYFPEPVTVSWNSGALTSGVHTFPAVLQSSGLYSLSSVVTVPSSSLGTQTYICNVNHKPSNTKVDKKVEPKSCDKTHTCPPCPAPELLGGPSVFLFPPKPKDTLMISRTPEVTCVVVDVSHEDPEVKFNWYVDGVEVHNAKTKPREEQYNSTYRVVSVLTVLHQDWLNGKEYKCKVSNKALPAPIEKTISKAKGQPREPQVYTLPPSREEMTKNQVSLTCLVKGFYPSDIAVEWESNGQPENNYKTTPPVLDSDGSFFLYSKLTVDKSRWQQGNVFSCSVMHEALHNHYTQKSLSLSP
light: B1 light
B4: 04H1656-G1m/04L1606-lam1 (antibody, human IgG1, lambda, V domains shown)
VH: B2 VH with L11V, K13Q, K101A
VL: B2 VL with T33N, I54S, K58S
B5: 04H1389v373-G1m/04L1086-lam1 (antibody, human IgG1, lambda)
heavy: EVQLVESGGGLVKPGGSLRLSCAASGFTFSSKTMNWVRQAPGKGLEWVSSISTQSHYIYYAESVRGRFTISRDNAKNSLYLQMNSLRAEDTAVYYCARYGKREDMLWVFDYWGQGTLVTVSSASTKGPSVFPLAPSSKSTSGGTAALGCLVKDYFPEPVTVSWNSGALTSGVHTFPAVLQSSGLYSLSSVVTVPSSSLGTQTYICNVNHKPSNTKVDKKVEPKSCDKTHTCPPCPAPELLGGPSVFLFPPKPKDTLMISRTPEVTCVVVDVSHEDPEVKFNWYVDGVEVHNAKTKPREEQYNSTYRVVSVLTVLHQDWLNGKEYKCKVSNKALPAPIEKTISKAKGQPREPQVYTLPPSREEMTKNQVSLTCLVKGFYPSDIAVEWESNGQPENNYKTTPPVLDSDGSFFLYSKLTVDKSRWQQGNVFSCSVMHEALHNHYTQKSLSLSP
light: B1 light with S17T, E23D, W34Y, Y89F
B6: 04H1654-G1m/04L1606-lam1 (antibody, human IgG1, lambda, V domains shown)
VH: B2 VH with L11V, K13Q, E62R
VL: B2 VL with T33N, I54S, K58S
B7: 04H1637-G1m/04L1594-lam1 (antibody, human IgG1, lambda, V domains shown)
VH: B2 VH
VL: B2 VL with T33N, I54S
B8: 04H1637-G1m/04L1086-lam1 (antibody, human IgG1, lambda)
heavy: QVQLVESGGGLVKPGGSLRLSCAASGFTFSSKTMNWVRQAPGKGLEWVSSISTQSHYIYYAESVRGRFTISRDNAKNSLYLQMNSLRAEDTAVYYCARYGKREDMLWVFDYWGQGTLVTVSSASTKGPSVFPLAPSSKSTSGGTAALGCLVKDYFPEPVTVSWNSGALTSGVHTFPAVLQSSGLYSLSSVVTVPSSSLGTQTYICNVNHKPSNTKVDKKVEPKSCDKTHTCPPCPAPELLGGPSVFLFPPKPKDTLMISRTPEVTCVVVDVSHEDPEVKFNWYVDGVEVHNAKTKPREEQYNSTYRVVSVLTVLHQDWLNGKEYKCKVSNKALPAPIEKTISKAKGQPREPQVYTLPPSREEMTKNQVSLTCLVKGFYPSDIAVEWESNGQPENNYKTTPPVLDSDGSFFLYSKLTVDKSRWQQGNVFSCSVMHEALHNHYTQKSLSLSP
light: B1 light with S17T, E23D, W34Y, Y89F

Key:
human CTLA4 [1] = molecular target: T1, human CTLA4 (human); experiment: SPR Biacore T200, 37C, antibody captured, ATP 1 uM
T1 construct: also called hCTLA4; hCTLA4-His-BAP
T1 sequence (chain, as listed by the source limits assumed): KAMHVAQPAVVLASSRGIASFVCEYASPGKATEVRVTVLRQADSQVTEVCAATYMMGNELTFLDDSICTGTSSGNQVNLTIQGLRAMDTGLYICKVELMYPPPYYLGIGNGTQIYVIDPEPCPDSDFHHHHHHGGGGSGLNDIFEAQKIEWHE
Method: (§1) Biacore T200 was used to measure the binding of the generated antibodies to human CTLA4. 20 mM ACES (pH 7.4), 150 mM NaCl, 2 mM MgCl₂, 0.05% Tween 20 with ATP added to the desired concentration was used as the running buffer, and the assay was performed at 37° C. First, Protein G (CALBIOCHEM) was immobilized onto a Series S Sensor Chip CM3 (GE Healthcare), and the antibodies were captured by interacting an antibody solution prepared in an ATP-free running buffer with the chip. Next, by interacting with a human CTLA4 solution prepared in a running buffer containing ATP to the desired concentration, or a human CTLA4 solution prepared in a running buffer containing no ATP, the binding ability of the antibody to human CTLA4 in the presence or absence of ATP was evaluated. Chips were regenerated with 25 mM NaOH and 10 mM Glycine-HCl (pH 1.5), and assay was performed by repeatedly capturing antibodies. The dissociation constant of each antibody for CTLA4 was calculated using Biacore T200 Evaluation Software 2.0. Specifically, the binding rate constant ka (L/mol/s) and the dissociation rate constant kd (1/s) were calculated by global fitting of the sensorgrams obtained by the measurement, using a 1:1 Langmuir binding model. The dissociation constant KD (mol/L) was calculated from those values. Alternatively, the dissociation constant KD (mol/L) was calculated by the steady state model. In addition, the binding amount of CTLA4 per unit amount of antibody was calculated by correcting the amount of CTLA4 bound as calculated from the sensorgram obtained by the assay with the amount of antibody captured onto the chip surface.

human CTLA4 [2] = molecular target: T1, human CTLA4; experiment: SPR Biacore T200, 37C, antibody captured, ATP 10 uM
human CTLA4 [3] = molecular target: T1, human CTLA4; experiment: SPR Biacore T200, 37C, antibody captured, ADP 10 uM;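 also: antibodies held on a Protein G CM3 chip, human CTLA4 as analyte in ACES pH 7.4 buffer, rates from a global 1:1 Langmuir fit, Kd from rates or steady state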
Method: as §1
(§2) The binding ability of the generated variants to human CTLA4 in the presence of ADP or AMP was evaluated by Biacore T200 and compared with the binding ability in the presence of ATP.

human CTLA4 [4] = molecular target: T1, human CTLA4; experiment: SPR Biacore T200, 37C, antibody captured, AMP 10 uM
Method: as §1, §2

human CTLA4 [5] = molecular target: T1, human CTLA4; experiment: SPR Biacore T200, 37C, antibody captured, ATP 10 uM; remark: listed apart in the source
Method: as §1, §2

human CTLA4 [6] = molecular target: T1, human CTLA4; experiment: SPR Biacore T200, 37C, antibody captured, no ATP, steady state model

Row | Binder | Kd (human CTLA4 [1]) [nM] | Kd (human CTLA4 [2]) [nM] | Kd (human CTLA4 [3]) [nM] | koff (human CTLA4 [3]) [s⁻¹] | kon (human CTLA4 [3]) [M⁻¹ s⁻¹] | Kd (human CTLA4 [4]) [nM] | koff (human CTLA4 [4]) [s⁻¹] | kon (human CTLA4 [4]) [M⁻¹ s⁻¹] | Kd (human CTLA4 [5]) [nM] | koff (human CTLA4 [5]) [s⁻¹] | kon (human CTLA4 [5]) [M⁻¹ s⁻¹] | Kd (human CTLA4 [6]) [nM]
1 | B1 | 100 | 18 | 22 | 0.0035 | 160000 | 70 | 0.01 | 150000 | 15 | 0.0019 | 120000 | 3300
2 | B2 | 89 | 17 | – | – | – | – | – | – | – | – | – | 3200
3 | B3 | 89 | 14 | – | – | – | – | – | – | – | – | – | 2800
4 | B4 | 95 | 19 | 30 | 0.0048 | 160000 | 100 | 0.016 | 160000 | 19 | 0.0022 | 120000 | 2300
5 | B5 | 140 | 28 | – | – | – | – | – | – | – | – | – | 5300
6 | B6 | 140 | 25 | 35 | 0.0028 | 80000 | 110 | 0.009 | 81000 | 21 | 0.0013 | 65000 | 6800
7 | B7 | 140 | 28 | – | – | – | – | – | – | – | – | – | 4300
8 | B8 | 160 | 30 | – | – | – | – | – | – | – | – | – | 5300
